These results are taken from patent US20150267232A1, “IN VIVO AND IN VITRO CARBENE INSERTION AND NITRENE TRANSFER REACTIONS CATALYZED BY HEME ENZYMES” (California Institute of Technology, priority 2012, published 2015).

The nature of the assay: Small-scale anaerobic C—H amination with purified enzymes, azide 1. Type of assay: biochemical. As to conditions: benzosultam 3. As for the experimental part: Activities are presented in TTN. […] Yields and enantioselectivies determined by HPLC analysis. * (S−R)/(S+R). nd=not determined.
Enzymes used as purified catalysts were expressed as previously described (Lewis, J. C. et al., Proc. Natl. Acad. Sci. U.S.A. 106, 16550-16555 (2009)), and were purified by anion-exchange chromatography (for holoenzymes) or Ni-NTA chromatography (for isolated heme domains). Concentrations of P450 or P411 enzymes were determined as previously reported (Omura, T. & Sato, R., J. Biol. Chem. 239, 2370-2378 (1964); Vatsis, K. P. et al., J. Inorg. Biochem. 91, 542-553 (2002)). Small-scale reactions (400 μL) were conducted in 2 mL crimp vials containing degassed buffer (0.1 M potassium phosphate pH 8.0), enzyme (0.1-0.5% catalyst loading) and oxygen depletion system (10× stock solution containing 14,000 U/mL catalase, 1,000 U/mL glucose oxidase dissolved in 0.1 M KPi pH 8.0). Enzyme (P450 or P411) solution and oxygen depletion mixture were added to the vial with a small stir bar before crimp-sealing. […] Reactions were stirred at room temperature for 24 h under positive argon pressure.
Small-scale reactions (400 μL) were conducted in 2 mL crimp vials (Agilent Technologies, San Diego, Calif.) containing buffer (0.1 M potassium phosphate pH 8.0), enzyme (0.1-0.5% catalyst loading) and oxygen depletion system (10× stock solution containing 14,000 U/mL catalase, 1,000 U/mL glucose oxidase dissolved in 0.1 M KPi pH 8.0). Enzyme (P450 or P411) solution and oxygen depletion mixture were added to the vial with a small stir bar before crimp-sealing. […] In the meantime, the headspace of the sealed 2 mL reaction vial with the P450 solution was made anaerobic by flushing argon over the protein solution (with no bubbling). The buffer/reductant/glucose solution (270 μL) was syringed into the reaction vial with continuous argon purge of the vial headspace. An arylsulfonyl azide solution in DMSO (10 μL, 80 mM) was added to the reaction vial via a glass syringe, and the reaction was left stirring for 24 h at room temperature under positive argon pressure. […] Reactions were quenched by adding 30 μL 3 M HCl under argon. To the vials were then added acetonitrile (430 uL) and internal standard (o-toluenesulfonamide 10 mM in 50% acetonitrile 50% water, 1 mM final concentration). This mixture was then transferred to a microcentrifuge tube, and centrifuged at 17,000×g for 10 minutes. A portion (20 μL) of the supernatant was then analyzed by HPLC. For LC-MS analysis, the quenched reaction mixture was extracted twice with ethyl acetate (2×350 μL), dried under a light argon stream and resuspended in 50% water-acetonitrile (100 μL). For chiral HPLC the reactions were extracted as above with ethyl acetate, dried and resuspended in DMSO (100 μL) and then C18 purified as described above. The C18 purified material was dried, and resuspended in acetonitrile, and then injected onto the chiral HPLC system for analysis. Sultam formation was quantified comparison of integrated peak areas of internal standard and sultam at 220 nm to a calibration curve made using synthetically produced sultam and internal standard.
Purified enzymes were screened for activity in small scale reactions (400 μL) under anaerobic conditions as described above. Reactions were carried out using 0.5% mol of enzyme (10 μM) with respect to the triethylsulfonyl azide substrate 1 (2 mM). Standard reaction conditions described above were employed. Diethyl benzosultam product 3 (FIG. 18) was analyzed and quantified by reversed-phase HPLC (see above).
Small-scale reactions (400 μL total volume) were set up and worked up. Control reactions were performed with both the holoenzyme (BM3 with covalently linked reductase domain) and the isolated heme domain. […] Reactions of the complete system with heme domain (CS heme) included 2 mM Na2S2O4 rather than NADPH unless otherwise indicated in the table. […]

B1: ABC-CIS-A268T: BM3-CIS + C400S + A268T (9-10A TS + F87V, C400S) (protein, listed as Bacillus megaterium)
chain: TIKEMPQPKTFGELKNLPLLNTDKPVQALMKIADELGEIFKFEAPGRVTRYLSSQRLIKEACDESRFDKNLSQALKFARDFAGDGLVTSWTHEKNWKKAHNILLPSFSQQAMKGYHAMMVDIAVQLVQKWERLNADEHIEVSEDMTRLTLDTIGLCGFNYRFNSFYRDQPHPFIISMVRALDEVMNKLQRANPDDPAYDENKRQFQEDIKVMNDLVDKIIADRKARGEQSDDLLTQMLNGKDPETGEPLDDGNIRYQIITFLIAGHETTSGLLSFALYFLVKNPHVLQKVAEEAARVLVDPVPSYKQVKQLKYVGMVLNEALRLWPTAPAFSLYAKEDTVLGGEYPLEKGDEVMVLIPQLHRDKTVWGDDVEEFRPERFENPSAIPQHAFKPFGNGQRASIGQQFALHEATLVLGMMLKHFDFEDHTNYELDIKETLTLKPKGFVVKAKSKKIPLGGIPSPSTEQSAKKVRKKAENAHNTPLLVLYGSNMGTAEGTARDLADIAMSKGFAPQVATLDSHAGNLPREGAVLIVTASYNGHPPDNAKQFVDWLDQASADEVKGVRYSVFGCGDKNWATTYQKVPAFIDETLAAKGAENIADRGEADASDDFEGTYEEWREHMWSDVAAYFNLDIENSEDNKSTLSLQFVDSAADMPLAKMHGAFSTNVVASKELQQPGSARSTRHLEIELPKEASYQEGDHLGVIPRNYEGIVNRVTARFGLDASQQIRLEAEEEKLAHLPLAKTVSVEELLQYVELQDPVTRTQLRAMAAKTVCPPHKVELEALLEKQAYKEQVLAKRLTMLELLEKYPACEMKFSEFIALLPSIRPRYYSISSSPRVDEKQASITVSVVSGEAWSGYGEYKGIASNYLAELQEGDTITCFISTPQSEFTLPKDPETPLIMVGPGTGVAPFRGFVQARKQLKEQGQSLGEAHLYFGCRSPHEDYLYQEELENAQSEGIITLHTAFSRMPNQPKTYVQHVMEQDGKKLIELLDQGAHFYICGDGSQMAPAVEATLMKSYADVHQVSEADARLWLQQLEEKGRYAKDVWAG
modifications: cytochrome P450NADPH-P-450 reductase precursor, cytochrome P450 (BM3), CYP102A1
Under “0.1 mol % catalyst loading (2 μM), 2 mM azide 1, 2 mM NADPH”, B1 yielded a TTN of 82. Besides, the “% ee” value (0.1 mol % catalyst loading, (S−R)/(S+R)) is 47%.
